# In the domain aggregation screens of Martell et al. (2025):
# Experiment: soluble fraction after stress (log2 fold change); higher = more stays soluble; pooled small domains, quantitative proteomics
# Settings: stress: pH 4
# In short: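 Values are log2 fold changes, and higher ones mean more of the domain stayed soluble. Each fold change reflects the soluble amount of a domain after acid stress and is taken as a measure of aggregation propensity. The stress was pH 4, applied to pooled custom libraries of small protein domains analysed by high-throughput quantitative proteomics.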
row,Sequence,soluble fraction (log2)
1,HMSEQMQVGELVFQLHRKAIKNLHINVLPPDGFVRVSAPQAMTETAIRTAVISRLPWIRRQQQAFAAQ,≥ 0.43
2,HMGERVDGVVKFFNGQKGFGFIQREDGGPDAFVHISAVERAGMAGLDEGQRVSFELELDRRGKQAAINLTP,-0.192
3,HMEETLRALAKKISEKVLKSGRSTTLEPMNPYERRIIHSAVSEIEGVSSKSVGEEPYRKVVISSDNP,-0.0148
4,HMDSDMGQQLKTLLTVGTFMSSKELKAIAQQLGLKKPTDLKEWVELESGTQRIEGKPTKGYWIKMNDINN,-0.288
5,HMSLSKQETEFLTTFSASGKRVFTYQQATDYWQSKVAATNVLGRLVRKGWLQRLERGLYMIIPLEAGPERF,-0.807
6,HMRIFDDNMIFPTEAEISAALKRLVMDLPKVGFLQGHGERAVDNVGERAYSMFTHANNFRYALINQGFVT,-0.0562
7,HMEAISIYPNPTDNELHLSTSVQEVRIYNMYGIEVTRAANTDRLAVSHLPKGVYLVHADGAVLKMIK,-1.29
8,HMSPIKAGDLVKITGTKYYRGQTIPSWVKAKNWFVHSVSGDRAVINKSEDGKNAIMSPVKVSNLALVT,0.0492
9,HMTKDEFLTTLRTLIQDMPPEDRRDVMNYYTEYFEDAGPEREQEVLRQLGSPEQVAREVLGG,-0.459
10,HMKHKGILTTWNDDRGFGFITPKEGKEPVFVHISAFARGQGRPVLNASLTYRLVRDDQQRPRAEAVRL,0.189
11,HMNPTTQIQYNLPKSEFVSIYIYDLIGNRVKSLINNYQDAGYKSVYWDAMNDLGQPVSAGMYIY,-0.0442
12,HMSNMWVWSKLSGIQWMDAWEDRFHGNPNTVITRLKTNKTVRVEVYTETEQEALDIKKLFGGSIRKLV,0.103
13,HMKNEQESIAQKLYEAALKNDFVTIQEIQSGGYRLRNDDLTHMRESGVQSNTLIAIQKIFGL,-0.578
14,HMNNLNDIIEIIRIYAKNYARNNPSWNHSELINRIRDKALGEAEDYNIRLSEEDLALITELSLRGL,-1.24
15,HMAMSDFDALSNRISTLSQGRASAVRMKDGIVSLVLDIGGLSAEERKAMTAAIEGEGRGYPSVTQVRILET,0.0485
16,HMTSVAYVIDRINKIQNVYSELEALGLKDEFEKILSNIEDLSKKDIREIKTLLKTKGVIKNLDDLNVKL,-1.24
17,HMKDITAVISKKKGRDYYYIIVSYHLSNGKRVQKWIKTEFSVNGNNKRKLEQKRIEILQEWQNKLV,-0.0977
18,HMVDTSDLPAIVEKVFADNPEQVNDILNGKDRVKGFLVGQIMKATRGQAPPDEVNKLIDATLEKMKAA,0.188
19,HMSQLTVGTVVTGNASLQTQGLKLPSFASGSRPASPNIGQMIWNSSDAKAQIWNGSEWDDVG,≥ 0.43
20,HMKDPSLEHIDALAGKPFQAFPGQDHRAHITAHLNFMSTNMVRNNPSIMAAIQKNILEHISLMAQEQIQL,-0.683
21,HMSDKPRYYINGNTLFISDKSVKKVLFSDLSGRSILHTTETAINIATFRGAHILTVIYTDGSTKSEVIF,0.235
22,HMGGEAEVLQSIDEGREVEVRSVAADGSAEVIYRGARWRARAAVGSLAAGRWTIGRVDGTELVLEK,0.215
23,HMGKASNEVYEVISSKIRTGEWAPGYKLPSEPTLAEEFGVSRATVREALQELISRGRIKREQGRGTYVLH,-0.118
24,HMEAGTVTVTHAAVYIRSGPGVSYPIAGKAAKNDTYTVLQKDGDWFQIRLPQGNTGWIAGWLVETGT,-0.133
25,HMTTQTGTVKWFNEGKGFGFIAPDDGGKDLFAHFKEIQGTGFKTLAENQRVEFEVTQGQKGPQASKI,-0.469

row,Sequence,soluble fraction (log2)
1,HMLKDKLSDKDFDFYKNKIQIQLQGNPTELKELVRRFSSTEEQQILKTIDYMLDNGFLRIDEDNMIYWK,-1.8
2,HMSFSQNIGKRIREERLRLNLTQEKLAEDVNLSMAYIGQVERGDRSLTLDNLIIVAKRLGVTIDYLLS,-0.171
3,HMTVLPTEQDAKALVGLGEEEAAKIVEGNGWTYRIGSRDGEQFMLTEDFVTSRLTLGIEKAIVMTATI,-2.11
4,HMHKLTIEEALNYKTPANAGGPYSGKPFRDIYDQRGKAAVISFAKYYLSKATPEDPMVEVYRTLLDGAMEL,0.102
5,HMALSGTVQNFAGGIMILIFRPFKTGDYIEALGYFGKVSEVNIVSTKLRTFDNKTIILPNGALSNGNIQNY,-0.775
6,HMSGLVPAIGTKGEEGYIRESDIPGSNVKNPEEALAYMEWLKTQPSELLIPLYDEQGNVIGQFAVS,-0.681
7,HMNFTEAEQRFHFLEDQRQRGVLSLEQYRAELAQLRVTDAWGRLWMLQEQTGQWFVFHEGQWRPSQ,-0.266
8,HMEELTDSELNNLYRELFIARSNASDGVGIIEQKTIKGITYRLSNDNNYLIKELGNKEYIYKNGVWEEYT,0.0623
9,HMRQLISIYNNTIGADEIDQMRNILSNSGYKEGVDFAVQTADKKSVILVRRDLAGMIQEQLSGEGLPS,-0.18
10,HMTPELTAEEREVLSLLGDEPRTLAELIAASGRDYAALSVLLMGLELSQAVRQLPGNRYERF,-1.36
11,HMGTVVKRNALVHAWTEFNGGRASTKLLALGPGKVGEWIELENPQSGRKLRGEVQVDGSVRLG,0.296
12,HMEYYDDEELDRFRGVEADAYDEDAVNEFRDVLYTLQEIEVAGWLRSLQLRAINLPDELKDEAFLI,-2.01
13,HMNTDVEKQKVFTALFDDYFRRNSMTSLEKQLFLTALKTNFQNAQKTVAKDHPYYATYSLIISAIENYR,-0.936
14,HMESEIYKKIEKSRLLELAFTKSQKGDLTGAYDLYYQAFTKYDVIADNQNRYFEDFISLIRRKQQQD,-0.822
15,HMKYYIYQGVGASGELTKIAEVTDQKTYTVTGLQAKTTYRFAVSSYNGLRESTKSNIVTVTT,0.22
16,HMFIGFLHQLKEAGVPVSIREYLDFLSGLDKGITNLNTNSFYHFARASLVKDERHYDRFDRTFSEFFEGAL,-1.71
17,HMKPVSEMDNMEWVREQYFQNMIYEIGEWVKDKKTGIVGEIVKRGTNYVTIVQEDFSLHKIWLEDLETTE,-0.368
18,HMFNDGEIAIYTDPRGDAGETQIWKRGKGYYGQNDSFDFEAKDKKELEMKLKRWGYVLIAGSIDE,-0.0774
19,HMEKSQIHLIHTRYVNPEQLVPILSMVIPAENIYVKSDSNLIIINGSSEMLREVESIVSKLDVPS,-0.687
20,HMRMNASERQNQIVDLLSQNGVMKIMDIADHFNVSRETIRRDLIILEDDNRIKKWFGGVISAN,-0.219
21,HMLKETGVITASVLNVREDIGTSSNIVAQLKKGMEVNILESRAIAGSETWYRIDAGSIKGWIFGDYI,-2.29
22,HMTDRKRDAIVQAAIGEFREHGFNGTSMDRVAAAADVSKRTVYNHFPSKEELFEAILLLMWE,-1.78
23,HMSNVKVYPNPTSGKLTIDAENYKGVEVYDTSGRLIVKSELRTIDLEEQSKGLYLLKVNANGTTQEFKVFK,-0.977
24,HMSDDSTIVELLASSLRRDIAFGTLLPDQKLKLNELRTRYGGSIHSMRETLRILSAEGLVEATAQRGFRVT,-0.395
25,HMIYSKSDLELFGIKKIDVMEENILMLILSEYELDQTPKNILIDEAVRLSKKFGADNAYKFVNATLDTLL,-1.51

row,Sequence,soluble fraction (log2)
1,HMLADEPTGALDSKTSVQIMALLTEIAQDRLVIMVTHNPELADEYATRIVNLRDGVISDDSDPFNP,-0.289
2,HMDEPSITYGKVKVQTSLNVRQGPGTQYARIGSLGPNVRIQILGQEGQWYKIKYGNLQGYVHSDYVELEK,-0.376
3,HMGVVEEVAADFEGRAVVGKVDVDEQTELARRFGIMSIPTLVVMKGGKVVEQAVGARGKADIAAMLERH,-0.673
4,HMTHSEYVGRHGIAATSLRPAGAATIDGSRVDVVTSGEYIEKGTPIEVMTVNGSTVRVKAVPQIP,0.08
5,HMKRSFGYIRLLPSKRYQASYIGPDSQRHAAPETFTRKMDAEGWLSAERRLIEWDQWTSPEQRAAQARLD,0.127
6,HMREKPRETFQRIAEKVGQTLRKGPVRVQQMDLLFSESREQVMEVLRAMAESGEIRIQDDTLHWNGHT,0.193
7,HMGSKKAIPYVSGMSETEAQNELEEAGFKVTSSFQYDDSVESGKVISTTPEAGTKAEKGSTVTMLVSQGSN,0.0696
8,HMSVLSEQIKEQLMEDIFHKKYKAGDRIVESALARELGVSQASVREALRSLIAMGFLENEPFKGITVR,0.107
9,HMARAVSPLEAIPGVGPRRRQQLLKQLGGMQEVARAGVEDLSRVPGISRALAQQIYDAFHGD,0.0348
10,HMQSFIEELLPVVDNFERSLAVVDPSDEIKNFLKGYEMIYNQLMEVLKSQGVEVIKTEGEEFDPNFHQA,-0.776
11,HMNIQKYFAGREQFIELLEAVGIRTLEQFASADPSTVLPELHQAKRMLKLQTEIPSAPVFREWVNQALS,-0.901
12,HMELRSPMPGLIIEIPVSKGDIIKKDQSLIILEAMKMENVLTSPINGKIADIKVNVQDTVEKNNLLITFEN,-1.23
13,HMGSNRPLALGDVVRIEGSKTLGTILELNAKDAVVALGALKTTLPLSRIHHASSQESQRLKRQATQAPLR,0.0932
14,HMASGLITEEQAKSKALAHAGLSASQVNFIWVKQDWEDGRRVYEVEFYTDDYQEYDYEIDARTGEILSFDY,-1.06
15,HMPNIHVVFAEEWTDRRLDKVLSEYFDGYSRSFIKKLFDDGLILVNSKAVKPSYKVRAGDMIDISVPDPV,-0.465
16,HMAEIIVHEINRHLGESDEPVEFPEERREEAVAELLKNFHNDDAFRKMDDGKYEVALDGEAVREAARSLLA,-0.256
17,HMPQTNIYPNPAFDKLFVSNLENETNFKIMDLFGRTIINSKTKGEISISELKSGIYIIEINNFRQKFVK,-0.863
18,HMDGFVFVMPIKETRMFSVNDERPLVGIVKYSNGEFEKEQLIGFRPNSEYEFIIEGQRLYRVPVNSITIK,-1.25
19,HMSEVIYVAEDNVGQRIDVFLVNKLVDASRANIQKNIVDGVILVNNKNVKANYKLRLGDVVEIRTQ,-0.317
20,HMRDIGKNIRYYREKKGYSQEQLAQLLFVTRQTVSNYETSRSRPDVETLVKLAGLLDIDVTDLIYGPR,0.0792
21,HMSEPQYKVLFSNLDDRDGGAIVTALGAMNVPYKYNDTGTALLVPADRVYDARLQLASQGLPRG,0.172
22,HMHKKQEVQDSIDAAEEFMRASGVPAELITSKRAYAVKAIYADAVDKGTPDEIVKKDGMIVALISQMRS,-0.159
23,HMRVGISRNSGAAGIAVWLTQKLGRPVAKTEEIVHILKNWVDDQYEAGRVTNIGDGELWSVYKQMEAEE,0.0584
24,HMSKSKSEIDKDPHFWSSLFQRIGEGESLRKIAKDSKIPKSTLWAWIRNDPQLALRYSEAQQ,0.00982
25,HMDEDLQEALRKLNPIQANERKLLLKMLEQHRWNVSSVAKAFDVSRNTLYRRLHKLHIPLSNPSE,0.172
